One block for each sequence: values may come before it.
How the values were obtained:
Grb2 SH2 = Grb2 SH2 (UniProt P62993); test: SH2 binding enrichment of the phosphorylated peptide, bacterial display (enrichment ratio); higher = better substrate or ligand; peptides without Tyr show the background
c-Src SH2 = test: as above
SHP2-C SH2 = test: as above
Fes = Fes (UniProt P07332); test: phosphorylation enrichment, bacterial display (enrichment ratio); higher = better substrate or ligand; peptides without Tyr show the background
c-Abl (mouse) = test: as above
Hck = Hck (UniProt P08631); test: as above
FGFR1 = FGFR1 (UniProt P11362); test: as above
Fer (mouse) = test: as above
MERTK = MERTK (UniProt Q12866); test: as above
FGFR3 = FGFR3 (UniProt P22607); test: as above
AncSZ = test: as above
c-Src = test: as above
EPHB1 = EPHB1 (UniProt P54762); test: as above
Jak2 = Jak2 (UniProt O60674); test: as above
EPHB2 = EPHB2 (UniProt P29323); test: as above
Fyn = Fyn (UniProt P06241); test: as above
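For SH2 binding enrichment of the phosphorylated peptide, bacterial display in this document: peptide library displayed on the E. coli surface as eCPX fusions, selected cells deep-sequenced, score is each peptide's frequency after selection divided by its frequency in the input.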
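For phosphorylation enrichment, bacterial display in this document: 11-residue human phosphosite peptides and single-mutation variants displayed on the E. coli surface, counted by deep sequencing, each peptide's frequency after selection divided by its frequency in the unselected input library; frequency after pTyr selection over input frequency; kinase dosed for 20-30% of maximal phosphorylation in three min.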

Chain of Fyn (P06241 whole entry, looked up, the tested form may be a part): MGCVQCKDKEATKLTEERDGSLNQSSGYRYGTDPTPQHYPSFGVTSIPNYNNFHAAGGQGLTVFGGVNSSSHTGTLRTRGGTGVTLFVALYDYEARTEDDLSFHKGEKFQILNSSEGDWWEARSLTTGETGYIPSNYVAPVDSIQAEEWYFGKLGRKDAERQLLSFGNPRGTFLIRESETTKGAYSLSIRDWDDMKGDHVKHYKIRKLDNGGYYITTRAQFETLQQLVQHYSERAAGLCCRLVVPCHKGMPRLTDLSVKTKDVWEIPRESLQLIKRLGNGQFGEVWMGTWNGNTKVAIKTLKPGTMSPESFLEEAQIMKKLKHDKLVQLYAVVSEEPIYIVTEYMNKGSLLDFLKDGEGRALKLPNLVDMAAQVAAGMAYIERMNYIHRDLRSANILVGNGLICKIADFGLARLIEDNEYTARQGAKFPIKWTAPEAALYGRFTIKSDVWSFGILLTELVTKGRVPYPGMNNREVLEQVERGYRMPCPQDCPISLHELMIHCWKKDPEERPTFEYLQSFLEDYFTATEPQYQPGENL
Chain of Hck (P08631 whole entry, looked up): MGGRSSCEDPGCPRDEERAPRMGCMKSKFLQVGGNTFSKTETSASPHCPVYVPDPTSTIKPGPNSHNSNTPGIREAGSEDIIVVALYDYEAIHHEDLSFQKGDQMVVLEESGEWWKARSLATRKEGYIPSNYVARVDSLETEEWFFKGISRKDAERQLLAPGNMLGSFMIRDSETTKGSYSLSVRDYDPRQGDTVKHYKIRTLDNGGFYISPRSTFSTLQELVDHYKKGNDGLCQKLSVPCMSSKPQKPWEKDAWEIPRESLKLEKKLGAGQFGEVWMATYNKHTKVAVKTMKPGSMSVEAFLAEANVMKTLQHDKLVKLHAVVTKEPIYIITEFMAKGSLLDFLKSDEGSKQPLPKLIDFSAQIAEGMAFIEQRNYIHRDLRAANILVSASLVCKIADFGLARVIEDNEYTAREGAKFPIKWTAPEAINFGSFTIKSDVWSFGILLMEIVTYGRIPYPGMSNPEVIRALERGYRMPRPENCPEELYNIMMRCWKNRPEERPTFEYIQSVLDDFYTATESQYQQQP
Chain of MERTK (Q12866 whole entry, looked up): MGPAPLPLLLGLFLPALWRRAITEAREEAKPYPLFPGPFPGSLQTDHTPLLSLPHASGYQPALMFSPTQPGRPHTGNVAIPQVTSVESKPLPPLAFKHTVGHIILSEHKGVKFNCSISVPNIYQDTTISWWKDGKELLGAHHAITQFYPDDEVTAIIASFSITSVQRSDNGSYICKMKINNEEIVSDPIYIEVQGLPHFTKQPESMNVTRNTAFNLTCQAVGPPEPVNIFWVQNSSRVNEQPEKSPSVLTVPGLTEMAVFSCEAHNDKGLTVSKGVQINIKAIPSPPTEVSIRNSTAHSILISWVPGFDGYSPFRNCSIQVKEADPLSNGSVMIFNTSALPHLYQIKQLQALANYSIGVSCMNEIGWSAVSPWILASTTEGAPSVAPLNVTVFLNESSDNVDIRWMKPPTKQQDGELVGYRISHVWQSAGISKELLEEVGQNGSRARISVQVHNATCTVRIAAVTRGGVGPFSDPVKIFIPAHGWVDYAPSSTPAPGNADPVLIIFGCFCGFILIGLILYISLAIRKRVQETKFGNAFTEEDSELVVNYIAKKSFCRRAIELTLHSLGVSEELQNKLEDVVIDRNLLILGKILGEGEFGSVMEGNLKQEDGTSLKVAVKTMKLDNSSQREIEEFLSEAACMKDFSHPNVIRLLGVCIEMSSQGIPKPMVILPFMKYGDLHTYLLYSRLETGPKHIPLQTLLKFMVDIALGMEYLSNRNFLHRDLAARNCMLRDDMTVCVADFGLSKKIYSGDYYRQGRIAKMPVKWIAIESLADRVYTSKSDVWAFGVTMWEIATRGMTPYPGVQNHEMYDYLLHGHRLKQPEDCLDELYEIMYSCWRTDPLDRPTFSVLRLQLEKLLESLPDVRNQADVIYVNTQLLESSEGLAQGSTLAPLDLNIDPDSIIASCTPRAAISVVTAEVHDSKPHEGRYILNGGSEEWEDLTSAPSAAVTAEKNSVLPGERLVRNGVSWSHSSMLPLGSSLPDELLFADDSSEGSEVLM
Chain of FGFR1 (P11362 whole entry, looked up): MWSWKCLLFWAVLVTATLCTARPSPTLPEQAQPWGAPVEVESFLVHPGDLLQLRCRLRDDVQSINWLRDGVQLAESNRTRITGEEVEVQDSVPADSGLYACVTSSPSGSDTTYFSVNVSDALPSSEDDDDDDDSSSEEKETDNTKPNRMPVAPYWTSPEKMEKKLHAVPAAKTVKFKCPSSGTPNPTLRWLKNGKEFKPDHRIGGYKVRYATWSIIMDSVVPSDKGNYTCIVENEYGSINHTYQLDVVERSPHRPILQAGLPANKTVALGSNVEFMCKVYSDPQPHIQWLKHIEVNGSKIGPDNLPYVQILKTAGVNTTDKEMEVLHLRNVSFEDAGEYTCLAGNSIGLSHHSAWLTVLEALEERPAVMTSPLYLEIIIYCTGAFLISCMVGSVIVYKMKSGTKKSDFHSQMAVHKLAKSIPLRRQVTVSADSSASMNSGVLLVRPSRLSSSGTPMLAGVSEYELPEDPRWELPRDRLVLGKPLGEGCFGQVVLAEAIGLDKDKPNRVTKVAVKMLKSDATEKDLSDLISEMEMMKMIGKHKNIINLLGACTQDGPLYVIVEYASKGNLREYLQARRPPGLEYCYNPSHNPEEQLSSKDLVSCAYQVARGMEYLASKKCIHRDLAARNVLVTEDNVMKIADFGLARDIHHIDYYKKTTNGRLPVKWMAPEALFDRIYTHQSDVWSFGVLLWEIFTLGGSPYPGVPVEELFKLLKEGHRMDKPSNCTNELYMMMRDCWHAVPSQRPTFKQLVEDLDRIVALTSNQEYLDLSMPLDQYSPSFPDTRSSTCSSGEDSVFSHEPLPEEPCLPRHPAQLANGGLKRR
Chain of Fes (P07332 whole entry, looked up): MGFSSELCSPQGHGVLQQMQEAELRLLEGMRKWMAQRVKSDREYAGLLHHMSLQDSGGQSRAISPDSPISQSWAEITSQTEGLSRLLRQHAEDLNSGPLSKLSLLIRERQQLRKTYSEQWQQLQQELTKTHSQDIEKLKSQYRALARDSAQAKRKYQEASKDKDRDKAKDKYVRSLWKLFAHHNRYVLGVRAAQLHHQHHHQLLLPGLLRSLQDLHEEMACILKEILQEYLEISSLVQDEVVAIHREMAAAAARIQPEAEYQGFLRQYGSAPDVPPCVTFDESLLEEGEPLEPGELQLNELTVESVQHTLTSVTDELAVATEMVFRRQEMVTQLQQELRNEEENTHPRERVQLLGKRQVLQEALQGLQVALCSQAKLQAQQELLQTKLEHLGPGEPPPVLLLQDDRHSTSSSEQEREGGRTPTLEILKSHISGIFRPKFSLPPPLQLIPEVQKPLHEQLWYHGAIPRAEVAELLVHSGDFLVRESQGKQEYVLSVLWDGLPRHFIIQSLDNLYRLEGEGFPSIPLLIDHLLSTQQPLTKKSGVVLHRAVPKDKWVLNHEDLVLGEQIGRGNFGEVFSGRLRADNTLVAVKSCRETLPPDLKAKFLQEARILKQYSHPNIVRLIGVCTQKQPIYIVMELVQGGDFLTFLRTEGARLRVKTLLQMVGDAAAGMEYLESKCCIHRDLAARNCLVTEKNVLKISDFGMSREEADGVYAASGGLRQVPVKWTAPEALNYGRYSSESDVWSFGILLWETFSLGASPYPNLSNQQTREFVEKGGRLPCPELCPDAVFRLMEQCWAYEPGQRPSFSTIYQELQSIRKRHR
Chain of FGFR3 (P22607 whole entry, looked up): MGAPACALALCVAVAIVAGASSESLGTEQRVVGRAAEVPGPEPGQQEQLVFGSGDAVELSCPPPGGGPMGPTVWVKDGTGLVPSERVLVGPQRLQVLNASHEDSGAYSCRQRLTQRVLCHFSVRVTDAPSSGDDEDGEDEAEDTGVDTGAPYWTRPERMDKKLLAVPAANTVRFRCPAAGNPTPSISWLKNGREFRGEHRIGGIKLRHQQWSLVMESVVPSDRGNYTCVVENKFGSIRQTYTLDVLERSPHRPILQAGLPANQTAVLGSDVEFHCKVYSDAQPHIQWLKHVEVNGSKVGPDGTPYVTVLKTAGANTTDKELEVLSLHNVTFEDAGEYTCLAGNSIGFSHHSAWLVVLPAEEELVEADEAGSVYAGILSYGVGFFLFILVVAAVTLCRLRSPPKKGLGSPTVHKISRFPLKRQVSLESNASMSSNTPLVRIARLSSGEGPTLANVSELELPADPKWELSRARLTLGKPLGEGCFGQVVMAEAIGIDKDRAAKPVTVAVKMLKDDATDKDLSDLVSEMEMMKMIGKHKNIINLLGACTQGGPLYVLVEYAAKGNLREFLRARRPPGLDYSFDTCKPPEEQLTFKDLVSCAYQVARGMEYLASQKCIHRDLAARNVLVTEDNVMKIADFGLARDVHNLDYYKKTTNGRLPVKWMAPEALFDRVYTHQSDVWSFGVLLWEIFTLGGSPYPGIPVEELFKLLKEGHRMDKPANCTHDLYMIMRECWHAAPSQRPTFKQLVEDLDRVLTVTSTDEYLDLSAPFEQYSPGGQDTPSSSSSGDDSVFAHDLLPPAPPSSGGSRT

Sequence: EPFELYCEMGS [CBL_Y371_Q367P_YF]
- SH2 binding enrichment (Grb2 SH2): 0.764
- SH2 binding enrichment (c-Src SH2): 0.397
- SH2 binding enrichment (SHP2-C SH2): 0.558
- phosphorylation enrichment (Fes): 1.55
- phosphorylation enrichment (c-Abl (mouse)): 0.848
- phosphorylation enrichment (Hck): 1.51
- phosphorylation enrichment (FGFR1): 0.897
- phosphorylation enrichment (Fer (mouse)): 0.749
- phosphorylation enrichment (MERTK): 1.16
- phosphorylation enrichment (FGFR3): 1.22
- phosphorylation enrichment (AncSZ): 1.68
- phosphorylation enrichment (c-Src): 1.21
- phosphorylation enrichment (EPHB1): 2.64
- phosphorylation enrichment (Jak2): 1.38
- phosphorylation enrichment (EPHB2): 2.31
- phosphorylation enrichment (Fyn): 1.26

Sequence: EPTPGYEVGQR [TSC2_Y1788]
- SH2 binding enrichment (Grb2 SH2): 0.812
- SH2 binding enrichment (c-Src SH2): 0.6
- SH2 binding enrichment (SHP2-C SH2): 0.677
- phosphorylation enrichment (Fes): 0.907
- phosphorylation enrichment (c-Abl (mouse)): 0.602
- phosphorylation enrichment (Hck): 0.566
- phosphorylation enrichment (FGFR1): 0.514
- phosphorylation enrichment (Fer (mouse)): 0.545
- phosphorylation enrichment (MERTK): 0.491
- phosphorylation enrichment (FGFR3): 0.591
- phosphorylation enrichment (AncSZ): 0.863
- phosphorylation enrichment (c-Src): 0.507
- phosphorylation enrichment (EPHB1): 0.472
- phosphorylation enrichment (Jak2): 0.672
- phosphorylation enrichment (EPHB2): 0.585
- phosphorylation enrichment (Fyn): 0.51

Sequence: ERLWDCGMSSS [F8_Y1728_Y1728C]
- SH2 binding enrichment (Grb2 SH2): 1.15
- SH2 binding enrichment (c-Src SH2): 0.634
- SH2 binding enrichment (SHP2-C SH2): 0.9
- phosphorylation enrichment (Fes): 0.771
- phosphorylation enrichment (c-Abl (mouse)): 0.49
- phosphorylation enrichment (Hck): 0.451
- phosphorylation enrichment (FGFR1): 0.553
- phosphorylation enrichment (Fer (mouse)): 0.371
- phosphorylation enrichment (MERTK): 0.387
- phosphorylation enrichment (FGFR3): 0.537
- phosphorylation enrichment (AncSZ): 0.803
- phosphorylation enrichment (c-Src): 0.388
- phosphorylation enrichment (EPHB1): 0.535
- phosphorylation enrichment (Jak2): 0.74
- phosphorylation enrichment (EPHB2): 0.52
- phosphorylation enrichment (Fyn): 0.517

The next lines start with results.

- SH2 binding enrichment (Grb2 SH2): 1.08
- SH2 binding enrichment (c-Src SH2): 0.716
- SH2 binding enrichment (SHP2-C SH2): 0.792
Sequence: EMFNPCFGLFE [NEDD4L_Y679_Y679C_YF]
- phosphorylation enrichment (Fes): 1.45
- phosphorylation enrichment (c-Abl (mouse)): 1.29
- phosphorylation enrichment (Hck): 0.562
- phosphorylation enrichment (FGFR1): 0.667
- phosphorylation enrichment (Fer (mouse)): 0.811
- phosphorylation enrichment (MERTK): 0.554
- phosphorylation enrichment (FGFR3): 0.798
- phosphorylation enrichment (AncSZ): 1.27
- phosphorylation enrichment (c-Src): 0.725
- phosphorylation enrichment (EPHB1): 0.71
- phosphorylation enrichment (Jak2): 1.41
- phosphorylation enrichment (EPHB2): 0.687
- phosphorylation enrichment (Fyn): 0.543

- SH2 binding enrichment (Grb2 SH2): 0.788
- SH2 binding enrichment (c-Src SH2): 0.405
- SH2 binding enrichment (SHP2-C SH2): 0.553
Sequence: EPGNLYIAKVE [CNTN4_Y180_T176P]
- phosphorylation enrichment (Fes): 1.09
- phosphorylation enrichment (c-Abl (mouse)): 0.665
- phosphorylation enrichment (Hck): 0.502
- phosphorylation enrichment (FGFR1): 0.435
- phosphorylation enrichment (Fer (mouse)): 0.408
- phosphorylation enrichment (MERTK): 0.347
- phosphorylation enrichment (FGFR3): 0.605
- phosphorylation enrichment (AncSZ): 0.833
- phosphorylation enrichment (c-Src): 0.439
- phosphorylation enrichment (EPHB1): 0.454
- phosphorylation enrichment (Jak2): 0.898
- phosphorylation enrichment (EPHB2): 0.482
- phosphorylation enrichment (Fyn): 0.386

- SH2 binding enrichment (Grb2 SH2): 0.867
- SH2 binding enrichment (c-Src SH2): 0.456
- SH2 binding enrichment (SHP2-C SH2): 0.756
Sequence: EQRRAYLEGTC [HLA-C_Y183_L180R]
- phosphorylation enrichment (Fes): 1.01
- phosphorylation enrichment (c-Abl (mouse)): 0.822
- phosphorylation enrichment (Hck): 0.524
- phosphorylation enrichment (FGFR1): 0.472
- phosphorylation enrichment (Fer (mouse)): 0.498
- phosphorylation enrichment (MERTK): 0.47
- phosphorylation enrichment (FGFR3): 0.675
- phosphorylation enrichment (AncSZ): 0.832
- phosphorylation enrichment (c-Src): 0.45
- phosphorylation enrichment (EPHB1): 0.578
- phosphorylation enrichment (Jak2): 0.917
- phosphorylation enrichment (EPHB2): 0.528
- phosphorylation enrichment (Fyn): 0.482

- SH2 binding enrichment (Grb2 SH2): 0.981
- SH2 binding enrichment (c-Src SH2): 0.708
- SH2 binding enrichment (SHP2-C SH2): 0.743
Sequence: EREYKYGAHNH [OAT_Y50_Y55H]
- phosphorylation enrichment (Fes): 0.603
- phosphorylation enrichment (c-Abl (mouse)): 0.483
- phosphorylation enrichment (Hck): 0.44
- phosphorylation enrichment (FGFR1): 0.485
- phosphorylation enrichment (Fer (mouse)): 0.364
- phosphorylation enrichment (MERTK): 0.496
- phosphorylation enrichment (FGFR3): 0.463
- phosphorylation enrichment (AncSZ): 0.525
- phosphorylation enrichment (c-Src): 0.415
- phosphorylation enrichment (EPHB1): 0.391
- phosphorylation enrichment (Jak2): 0.591
- phosphorylation enrichment (EPHB2): 0.509
- phosphorylation enrichment (Fyn): 0.406

- SH2 binding enrichment (Grb2 SH2): 0.774
- SH2 binding enrichment (c-Src SH2): 0.522
- SH2 binding enrichment (SHP2-C SH2): 0.751
Sequence: ERFAFYRDSPR [FOXE3_Y108]
- phosphorylation enrichment (Fes): 0.785
- phosphorylation enrichment (c-Abl (mouse)): 0.625
- phosphorylation enrichment (Hck): 0.523
- phosphorylation enrichment (FGFR1): 0.474
- phosphorylation enrichment (Fer (mouse)): 0.404
- phosphorylation enrichment (MERTK): 0.489
- phosphorylation enrichment (FGFR3): 0.566
- phosphorylation enrichment (AncSZ): 0.889
- phosphorylation enrichment (c-Src): 0.587
- phosphorylation enrichment (EPHB1): 0.456
- phosphorylation enrichment (Jak2): 0.835
- phosphorylation enrichment (EPHB2): 0.51
- phosphorylation enrichment (Fyn): 0.49

Reference: the supplement of paper PMC10065799, “High-throughput profiling of sequence recognition by tyrosine kinases and SH2 domains using bacterial peptide display” (eLife, 2023)
